Assay results taken from article PMC2702170, “DNA Structure Modulates the Oligomerization Properties of the AAV Initiator Protein Rep68” (PLoS Pathogens, 2009).
Where a chain is given by its changes, count along the chain named. Names and notes keep the numbering of the source.

Tests used:
OID (OID-N208) [1] = biological target: T1, OID (OID-N208) (Adeno-associated virus 2 (AAV2), UniProt P03132 1-208); assay: fluorescence anisotropy; Anisotropy: 20 mM HEPES pH 7.5, 50 mM NaCl, 5 nM DNA, 20 C, 15 min. SEC: 25 mM Tris-HCl pH 8.0 (4 C), 200 mM NaCl, 5% glycerol, 1 mM TCEP, 16.6 uM protein, 30 min on ice; conditions: protein: recombinant; chain copies: 2; label: 5' 6-carboxyfluorescein
Rep40 [2] = biological target: T2, Rep40 (Adeno-associated virus 2 (AAV2), UniProt Q89269 1-312); assay: as above; conditions: protein: recombinant; label: 5' 6-carboxyfluorescein
T2 sequence: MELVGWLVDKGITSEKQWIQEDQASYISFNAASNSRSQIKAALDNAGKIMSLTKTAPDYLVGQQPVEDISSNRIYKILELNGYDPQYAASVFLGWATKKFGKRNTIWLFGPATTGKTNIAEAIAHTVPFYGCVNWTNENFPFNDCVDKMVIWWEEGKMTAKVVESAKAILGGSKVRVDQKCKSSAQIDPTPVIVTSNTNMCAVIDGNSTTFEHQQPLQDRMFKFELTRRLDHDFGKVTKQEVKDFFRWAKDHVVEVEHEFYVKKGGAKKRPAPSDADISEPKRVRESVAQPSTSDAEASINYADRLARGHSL

Rep68 [3] = biological target: T3, Rep68 (Adeno-associated virus 2 (AAV2), UniProt P03132 1-536); assay: as above; conditions: protein: recombinant; tags: untagged (His6-PreScission tag removed); chain copies: 16; label: 5' 6-carboxyfluorescein
OID (OID-N208) [4] = biological target: T1, OID (OID-N208); assay: size exclusion chromatography; 2.8 or 16.6 uM RBS dsDNA, 200 mM NaCl; Anisotropy: 20 mM HEPES pH 7.5, 50 mM NaCl, 5 nM DNA, 20 C, 15 min. SEC: 25 mM Tris-HCl pH 8.0 (4 C), 200 mM NaCl, 5% glycerol, 1 mM TCEP, 16.6 uM protein, 30 min on ice; conditions: protein: recombinant; chain copies: 2; blunt
Rep68 [5] = biological target: T3, Rep68; assay: size exclusion chromatography; sedimentation velocity; SAXS; apparent ~578 kDa; five Rep68 subunits; Anisotropy: 20 mM HEPES pH 7.5, 50 mM NaCl, 5 nM DNA, 20 C, 15 min. SEC: 25 mM Tris-HCl pH 8.0 (4 C), 200 mM NaCl, 5% glycerol, 1 mM TCEP, 16.6 uM protein, 30 min on ice; conditions: protein: recombinant; tags: untagged (His6-PreScission tag removed); chain copies: 5; blunt
Rep68 [6] = biological target: T3, Rep68; assay: size exclusion chromatography; sedimentation velocity; SAXS; cryo-EM; no nucleotide; apparent ~2.3 MDa; Anisotropy: 20 mM HEPES pH 7.5, 50 mM NaCl, 5 nM DNA, 20 C, 15 min. SEC: 25 mM Tris-HCl pH 8.0 (4 C), 200 mM NaCl, 5% glycerol, 1 mM TCEP, 16.6 uM protein, 30 min on ice; conditions: protein: recombinant; tags: untagged (His6-PreScission tag removed); chain copies: 16
OID (OID-N208) [7] = biological target: T1, OID (OID-N208); assay: size exclusion chromatography; 2.8 or 16.6 uM ssDNA, 200 mM NaCl; ssDNA elutes free; Anisotropy: 20 mM HEPES pH 7.5, 50 mM NaCl, 5 nM DNA, 20 C, 15 min. SEC: 25 mM Tris-HCl pH 8.0 (4 C), 200 mM NaCl, 5% glycerol, 1 mM TCEP, 16.6 uM protein, 30 min on ice; conditions: protein: recombinant; chain copies: 2
Rep40 [8] = biological target: T2, Rep40; assay: as above; conditions: protein: recombinant
His-Rep68 WT = His-Rep68 WT (Adeno-associated virus 2 (AAV2), UniProt P03132 1-536); assay: size exclusion chromatography; somewhat less efficient than untagged; Anisotropy: 20 mM HEPES pH 7.5, 50 mM NaCl, 5 nM DNA, 20 C, 15 min. SEC: 25 mM Tris-HCl pH 8.0 (4 C), 200 mM NaCl, 5% glycerol, 1 mM TCEP, 16.6 uM protein, 30 min on ice; conditions: protein: recombinant; tags: N-terminal His6-PreScission site; chain copies: 16
[9] = biological target: the molecule itself; assay: AUC; with RBS dsDNA; sedimentation velocity (Rep68 1 mg/ml, 2.8 µM RBS dsDNA, buffer A, 45,000 rpm, 20°C) and sedimentation equilibrium (complex purified by gel filtration, OD260 0.25 or 0.75; 4,000, 5,000 and 7,000 rpm, 20°C)
[10] = biological target: the molecule itself; assay: cryo-EM structure; Rep68-heteroduplex complex purified by size-exclusion chromatography; 2D classification of a limited number of end views
[11] = biological target: the molecule itself; assay: cryo-EM structure; Rep68-ssDNA complex purified on Superose 6, about 0.4 mg/ml; 0.05% n-octyl β-D-glucopyranoside for side views; reference-free 2D alignment and classification only (no 3D map)
[12] = biological target: the molecule itself; assay: SEC; Superose 6 10/300 GL, buffer A (25 mM Tris-HCl pH 8.0, 200 mM NaCl, 5% glycerol, 1 mM TCEP); Rep protein 16.6 µM incubated with 2.8 µM ssDNA (polydT25) 30 min on ice; also with 1 mM ATP, ATP/CaCl2 or ATP/MgCl2 added (same complex)

B1: poly-dT38 5'-FAM (ssDNA)
DNA: TTTTTTTTTTTTTTTTTTTTTTTTTTTTTTTTTTTTTT
Binder B1 has a Kd (OID (OID-N208) [1]) of ~130 nM, a Kd (Rep40 [2]) of ~3500 nM and a Kd (Rep68 [3]) of 23 nM.

B2: RBS dsDNA (JM-2/JM-20) (dsDNA)
DNA 1: GCCTCAGTGAGCGAGCGAGCGCGCAGAG
DNA 2: CTCTGCGCGCTCGCTCGCTCACTGAGGC
B2: binds (OID (OID-N208) [4]); binds (Rep68 [5]).

B3: poly-dT25 ssDNA (ssDNA)
DNA: TTTTTTTTTTTTTTTTTTTTTTTTT
B3: binds (Rep68 [6]); no binding (OID (OID-N208) [7]); no binding (Rep40 [8]). B3: binds (His-Rep68 WT).

B4: Rep68 (adeno-associated virus 2), non-tagged (natural protein)
chain: MPGFYEIVIKVPSDLDGHLPGISDSFVNWVAEKEWELPPDSDMDLNLIEQAPLTVAEKLQRDFLTEWRRVSKAPEALFFVQFEKGESYFHMHVLVETTGVKSMVLGRFLSQIREKLIQRIYRGIEPTLPNWFAVTKTRNGAGGGNKVVDECYIPNYLLPKTQPELQWAWTNMEQYLSACLNLTERKRLVAQHLTHVSQTQEQNKENQNPNSDAPVIRSKTSARYMELVGWLVDKGITSEKQWIQEDQASYISFNAASNSRSQIKAALDNAGKIMSLTKTAPDYLVGQQPVEDISSNRIYKILELNGYDPQYAASVFLGWATKKFGKRNTIWLFGPATTGKTNIAEAIAHTVPFYGCVNWTNENFPFNDCVDKMVIWWEEGKMTAKVVESAKAILGGSKVRVDQKCKSSAQIDPTPVIVTSNTNMCAVIDGNSTTFEHQQPLQDRMFKFELTRRLDHDFGKVTKQEVKDFFRWAKDHVVEVEHEFYVKKGGAKKRPAPSDADISEPKRVRESVAQPSTSDAEASINYADRLARGHSL
notes: Rep68 protein of adeno-associated virus 2 (AAV2), GenBank AAC03774; Expressed as His6-PreScission site-Rep68; the His-PP tag was removed with PreScission protease; also called untagged Rep68; non-tagged Rep68; source: E. coli BL21(DE3)pLysS, purified (Ni column, PreScission cleavage, second Ni column, Superdex 200 gel filtration); not shown: His6, N-terminal, cleaved
With B4 the “stoichiometry N” value [9] was 5, the “stoichiometry N” value [10] was 8 and the “stoichiometry N” value [11] was 16.

B5: His-Rep68 K406A (natural protein)
chain: B4 chain with K406A
notes: Rep68 protein of adeno-associated virus 2 (AAV2), GenBank AAC03774, with K406A; source: E. coli BL21(DE3)pLysS, purified (Ni column, Superdex 200 gel filtration); not shown: His6, N-terminal, kept
B5: binds [12].

B6: His-Rep68 K404A (natural protein)
chain: B4 chain with K404A
notes: Rep68 protein of adeno-associated virus 2 (AAV2), GenBank AAC03774, with K404A; source: E. coli BL21(DE3)pLysS, purified (Ni column, Superdex 200 gel filtration); not shown: His6, N-terminal, kept
B6: binds [12].
